# Laboratory results taken from the supplement of paper PMC11908140.
# B1: library; numbered along this chain (parent)
# chain: MRKPRAAVGSGHRKQAASQEGRQKHAKNNSQAKPSACDGLARQPEEVVLQASVSSYHLFRDVAEVTAFRGSLLSWYDQEKRDLPWRRRAEDEMDLDRRAYAVWVSEVMLQQTQVATVINYYTGWMQKWPTLQDLASASLEEVNQLWAGLGYYSRGRRLQEGARKVVEELGGHMPRTAETLQQLLPGVGRYTAGAIASIAFGQATGVVDGNVARVLCRVRAIGADPSSTLVSQQLWGLAQQLVDPARPGDFNQAAMELGATVCTPQRPLCSQCPVESLCRARQRVEQEQLLASGSLSGSPDVEECAPNTGQCHLCLPPSEPWDQTLGVVNFPRKASRKPPREESSATCVLEQPGALGAQILLVQRPNSGLLAGLWEFPSVTWEPSEQLQRKALLQELQRWAGPLPATHLRHLGEVVHTFSHIKLTYQVYGLALEGQTPVTTVPPGARWLTQEEFHTAAVSTAMKKVFRVYQGQQPGTCMGSKRSQVSSPCSRKKPRMGQQVLDNFFRSHISTDAHSLNSAAQ
# Variants of: B1
# Test: 8OG:A repair function score (normalized; synonymous = 0, nonsense = -1) (normalized log-likelihood score); higher = more repair activity (WT-like)
# Conditions: with 8OG:A DNA repair reporter (GFP) in HEK-293 MUTYH KO cells
# In short: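 MUTYH knockout HEK-293 cells carrying lentiviral MUTYH cDNA NNN codon-scan libraries were grown with 10 pg/ml doxycycline and co-transfected with mCherry and a GFP reporter of 8OG:A repair. Viable mCherry+ cells were sorted at 72 h into GFP+ (repair) and GFP− bins, with three replicates per tile, and tile amplicons were sequenced. Rosace fitness scores for each tile were turned into a normalized repair function score anchored on the synonymous and nonsense distributions. Synonymous medians were set to 0 and nonsense medians to -1, and variants below 300 counts per million at the start were dropped.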
row,Variant,8OG:A repair function score
1,MRKPRAAVGSGHRKQAASQEGRQKHAKNNSQAKPSACDGLARQPEEVVLQASVSSYHLFRDVAEVTAFRGSLLSWYDQEKRDLPWRRRAEDEMDLDRRAYAVWVSEVMLQQTQVATVINYYTGWMQKWPTLQDLASASLEEVNQLWAGLGYYSRGRRLQEGARKVVEELGGHMPRTAETLQQLLPGVGRYTAGAIASIAFGQATGVVDGNVARVLCRVRAIGADPSSTLVSQQLWGLAQQLVDPARPGDFNQAAMELGATVCTPQRPLCSQCPVESLCRARQRVEQEQLLASGSLSGSPDVEECAPNTGQCHLCLPPSEPWDQTLGVVNFPRKASRKPPREESSATCVLEQPGALGAQILLVQRPNSGLLAGLWEFPSVTWEPSEQLQRKALLQELQRWAGPLPATHLRHLGEVVHTFSHIKLTYQVYGLALEGQTPVTTVPPGARWLTQEEFHTAAVSTAMKKVFRVYQIQQPGTCMGSKRSQVSSPCSRKKPRMGQQVLDNFFRSHISTDAHSLNSAAQ [G471I],-0.00761
2,MRKPRAAVGSGHRKQAASQEGRQKHAKNNSQAKPSACDGLARQPEEVVLQASVSSYHLFRDVAEVTAFRGSLLSWYDQEKRDLPWRRRAEDEMDLDRRAYAVWVSEVMLQQTQVATVINYYVGWMQKWPTLQDLASASLEEVNQLWAGLGYYSRGRRLQEGARKVVEELGGHMPRTAETLQQLLPGVGRYTAGAIASIAFGQATGVVDGNVARVLCRVRAIGADPSSTLVSQQLWGLAQQLVDPARPGDFNQAAMELGATVCTPQRPLCSQCPVESLCRARQRVEQEQLLASGSLSGSPDVEECAPNTGQCHLCLPPSEPWDQTLGVVNFPRKASRKPPREESSATCVLEQPGALGAQILLVQRPNSGLLAGLWEFPSVTWEPSEQLQRKALLQELQRWAGPLPATHLRHLGEVVHTFSHIKLTYQVYGLALEGQTPVTTVPPGARWLTQEEFHTAAVSTAMKKVFRVYQGQQPGTCMGSKRSQVSSPCSRKKPRMGQQVLDNFFRSHISTDAHSLNSAAQ [T122V],-0.0114
3,MRKPRAAVGSGHRKQAASQEGRQKHAKNNSQAKPSACDGLARQPEEVVLQASVSSYHLFRDVAEVTAFRGSLLSWYDQEKRDLPWRRRAEDEMDLDRRAYAVWVSEVMLQQTQVATVINYYTGWMQKWPTLQDLASASLEEVNQLWAGLGYYSRGRRLQEGARKVVEELGGHMPRTAETLQQLLPGVGRYTAGAIASIAFGQATGVVDGNVARVLCRVRAIGADPSSTLVSQQLWGLAQQLVDPARPGDFNQAAMELGATVCTPQRPLCSQCPVESLCRARQRVEQEQLLASGSLSGSPDVEECAPNTGQCHLCLPPSEPWDQTLGVVNFPRKASRKPPREESSATCVLEQPGALGAQILLVQRPNSGLLAGLWEFPSVTWEPSEQLQRKALLQELQRWAGPLPATHLRHLGEVVHTFSHIKLTYQVYGLALEGQTPVTTVPPGARWLTQEEFHTAAVSTAMKKVFRVYQGQQPSTCMGSKRSQVSSPCSRKKPRMGQQVLDNFFRSHISTDAHSLNSAAQ [G475S],-0.016
4,MRKPRAAVGSGHRKQAASQEGRQKHAKNNSQAKPSACDGLARQPEEVVLQASVSSYHLFRDVAEVTAFRGSLLSWYDQEKRDLPWRRRAEDEMDLDRRAYAVWVSEVMLQQTQVATVINYYTGWMQKWPTLQDLASASLEEVNQLWAGLGYYSRGRRLQEGARKVVEELGGHMPRTAETLQQLLPGVGRYTAGAIASIAFGQATCVVDGNVARVLCRVRAIGADPSSTLVSQQLWGLAQQLVDPARPGDFNQAAMELGATVCTPQRPLCSQCPVESLCRARQRVEQEQLLASGSLSGSPDVEECAPNTGQCHLCLPPSEPWDQTLGVVNFPRKASRKPPREESSATCVLEQPGALGAQILLVQRPNSGLLAGLWEFPSVTWEPSEQLQRKALLQELQRWAGPLPATHLRHLGEVVHTFSHIKLTYQVYGLALEGQTPVTTVPPGARWLTQEEFHTAAVSTAMKKVFRVYQGQQPGTCMGSKRSQVSSPCSRKKPRMGQQVLDNFFRSHISTDAHSLNSAAQ [G205C],-0.378
5,MRKPRAAVGSGHRKQAASQEGRQKHAKNNSQAKPSACDGLARQPEEVVLQASVSSYHLFRDVAEVTAFRGSLLSWYDQEKRDLPWRRRAEDEMDLDRRAYAVWVSEVMLQQTQVATVINYYTGWMQKWPTLQDLASASLEEVNQLWAGLGYYSRGRRLQEGARKVVEELGGHMPRTAETLQQLLPGVGRYTAGAIASIAFGQATGVVDGNVARVLCRVRAIGADPSSTLVSQQLWGLAQQLVDPARPGDFNQAAMELGATVCTPQRPLCSQCPVESLCRARQRVEQEQLLASGSLSGSPDVEECAPNTGQCHLCLPPSEPWDQTLGVVNFPRKASRKPPREESSATCVLEQPGALGAQILLVQRPNSGLLAGLWEFPSVTWEPSEQLQRKALLQELERWAGPLPATHLRHLGEVVHTFSHIKLTYQVYGLALEGQTPVTTVPPGARWLTQEEFHTAAVSTAMKKVFRVYQGQQPGTCMGSKRSQVSSPCSRKKPRMGQQVLDNFFRSHISTDAHSLNSAAQ [Q397E],-0.364
6,MRKPRAAVGSGHRKQAASQEGRQKHAKNNSQAKPSACDGLARQPEEVVLQASVSSYHLFRDVAEVTAFRGSLLSWYDQEQRDLPWRRRAEDEMDLDRRAYAVWVSEVMLQQTQVATVINYYTGWMQKWPTLQDLASASLEEVNQLWAGLGYYSRGRRLQEGARKVVEELGGHMPRTAETLQQLLPGVGRYTAGAIASIAFGQATGVVDGNVARVLCRVRAIGADPSSTLVSQQLWGLAQQLVDPARPGDFNQAAMELGATVCTPQRPLCSQCPVESLCRARQRVEQEQLLASGSLSGSPDVEECAPNTGQCHLCLPPSEPWDQTLGVVNFPRKASRKPPREESSATCVLEQPGALGAQILLVQRPNSGLLAGLWEFPSVTWEPSEQLQRKALLQELQRWAGPLPATHLRHLGEVVHTFSHIKLTYQVYGLALEGQTPVTTVPPGARWLTQEEFHTAAVSTAMKKVFRVYQGQQPGTCMGSKRSQVSSPCSRKKPRMGQQVLDNFFRSHISTDAHSLNSAAQ [K80Q],-0.0315
